In experiment [1] the target is T1, Syrian hamster wildtype TMPRSS2 ectodomain (activated, two-chain) (Syrian hamster (Mesocricetus auratus), UniProt A0A1U8C7X1 108-254; A0A1U8C7X1 255-491).
T1 construct: TMPRSS2, Syrian hamster (Mesocricetus auratus), UniProt printed as 'A0A1U8C7 × 1'; N-terminal non-catalytic part of the ectodomain construct 108-491 up to the arginine of the scissile bond, R254; Expressed as one chain 108-491 with an Ig kappa leader; also called Hamster TMPRSS2; Ham TMPRSS2; source: FreeStyle 293 F (HEK293F), co-transfected with full-length HAI-2; purified from the supernatant …
Nature of the experiment: enzyme inhibition kinetics (tight-binding inhibition, fit to the Morrison equation); 50 pM human or hamster TMPRSS2 incubated with a 2/3-fold serial dilution of HAI-2 (300 to 5.2 pM) for 16 hours at room temperature; rates on the fluorogenic substrate Boc-Gln-Ala-Arg-AMC; equilibrium inhibitory constant; triplicate. To be noted: both partners purified.

For experiment [2], the target named is T2, human wildtype TMPRSS2 ectodomain (activated, two-chain) (human, UniProt O15393-1 107-255; O15393-1 256-492).
T2 construct: TMPRSS2, human, UniProt O15393-1; held to the SP domain by a disulfide bond after cleavage; Expressed as one chain 107-492 with an Ig kappa leader; also called Human TMPRSS2; Hu TMPRSS2; source: FreeStyle 293 F (HEK293F), co-transfected with full-length HAI-2; purified from the supernatant (G25, Ni-NTA IMAC, size-exclusion chromatography)
The experiment is described as above. To be noted: both partners purified.

T2 sequence (O15393 107-255, chain 1 of 2): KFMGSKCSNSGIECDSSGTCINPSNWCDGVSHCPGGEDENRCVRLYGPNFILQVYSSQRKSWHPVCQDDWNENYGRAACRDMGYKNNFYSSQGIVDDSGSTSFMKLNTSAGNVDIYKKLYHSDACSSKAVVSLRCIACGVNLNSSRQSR
T2 sequence (O15393 256-492, chain 2 of 2): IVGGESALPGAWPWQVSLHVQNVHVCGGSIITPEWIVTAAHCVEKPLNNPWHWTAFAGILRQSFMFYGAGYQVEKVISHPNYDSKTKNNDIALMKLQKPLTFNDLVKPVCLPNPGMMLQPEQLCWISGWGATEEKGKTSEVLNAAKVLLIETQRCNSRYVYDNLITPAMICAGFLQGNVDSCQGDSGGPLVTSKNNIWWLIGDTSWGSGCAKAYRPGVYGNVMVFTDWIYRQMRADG
T1 sequence (chain, as listed by the source, chain 1 of 2): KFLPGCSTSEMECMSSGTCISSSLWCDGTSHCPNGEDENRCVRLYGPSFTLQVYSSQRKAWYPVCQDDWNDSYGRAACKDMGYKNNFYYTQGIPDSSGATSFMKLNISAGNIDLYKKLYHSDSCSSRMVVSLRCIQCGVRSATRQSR
T1 sequence (chain, as listed by the source, chain 2 of 2): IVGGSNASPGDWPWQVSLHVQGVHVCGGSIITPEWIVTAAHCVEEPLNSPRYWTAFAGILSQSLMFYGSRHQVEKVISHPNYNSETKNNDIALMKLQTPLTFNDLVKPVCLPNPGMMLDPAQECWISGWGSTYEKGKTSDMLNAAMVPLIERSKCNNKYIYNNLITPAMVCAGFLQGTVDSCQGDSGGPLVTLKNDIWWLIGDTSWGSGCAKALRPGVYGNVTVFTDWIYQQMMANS

B1: human HAI-2 (hepatocyte growth factor activator inhibitor-2) ectodomain (domain or fragment, UniProt O43291-1 36-196, looked up)
chain: DFCLVSKVVGRCRASMPRWWYNVTDGSCQLFVYGGCDGNSNNYLTKEECLKKCATVTENATGDLATSRNAADSSVPSAPRRQDSEDHSSDMFNYEEYCTANAVTGPCRASFPRWYFDVERNSCNNFIYGGCRGNKNSYRSEEACMLRCFRQQENPPLPLGS
notes: source: FreeStyle 293 F (HEK293F), pcDNA3.1; purified (Ni-NTA IMAC, size-exclusion chromatography)
For the molecule B1, the values for the Ki in experiment [1] and in experiment [2] were 0.7 pM and 4.6 pM, respectively.
